Data from IntAct's records for PubMed 20739936.

B1: Chromosomal passenger complex protein bir1 (Schizosaccharomyces pombe (strain ATCC 38366 / 972)), O14064 (parent)
chain: MKPITSSSKRRWNRFRREMCNYSKRLDTFQKKKWPRAKPTPETLATVGFYYNPISESNSEERLDNVTCYMCTKSFYDWEDDDDPLKEHITHSPSCPWAYILSSKNNPNQNPQAAALTKCREQTFVDKVWPYTNRPDYHCEPSVMAASGFVYNPTADAKDAAHCLYCDINLHDWEPDDDPYTEHKRRRADCVFFTWKDPNSLSPTKLSFLSTSNIDPEDLTEDNSILPVSPTRDSTKSHKTLNFSPSRKNNLNARPLTMSLYTNTSEEKDSQPTRAPQSPTKPVLLTAPRRKNKSPKKSKPAVFKPVKPIFSDEDEDDDDLTASQPFSKGICNDSMQVAKKNFTEEIPLKEDEKDNELEHLVSPATSVHTTVSDITGHQSVTDESDEQNNCMSTPPKIEIESKIEEEISVVSKSKEISSSVSSVGKEQNHTEKQVAIETPEQQKVEKEDEHLNLQGSFIEESTKQPISSKPSTSSPDMTDAATGGRVSSSSFRDKILQTNFSPRSTIDSFSNISKKRNSEEANDENDETNLKIPIPEKKRKFQEVLQSKNILVSSTEDSHEPVKVTEDSQTAIHVSKFEDLENKSMESEQSLQLLSESENDDKPLIDLIPLLAIKRKDNLVSGVLEKGKSTSTSKTKFDTSIVDFIEKPKTEISEVLPEEKRKAICDESQTVRVSIDRGVTKTRDVSSPVSDEKSENVNHEEANSGHTVMNVHSSLDPQPIVQPNELESGSYLKDLPDRNVGNSEKVTFQEDDINSPKLQSKNNQTVEAVNTETSDKLQEKEANHELENIEKIEEKLTEVDKVSLSDAFPDQEIKNSRTSVQNGTRSVSKNTPEKETKVDKIDNVSKKDVETSPGSCETSSAFAKTYAEKEVTSINLPSVRKPLDESYYDHSISPFDPLCQSSFLAPQTPVKSKHALPLVEANAPPWEPIDFSSLLESPVPNPVEPNKLSEKELDMTVEQWIKFMYAKCAKEFEEACEEKIEWLLEEGKRAEEYIQNL
partner: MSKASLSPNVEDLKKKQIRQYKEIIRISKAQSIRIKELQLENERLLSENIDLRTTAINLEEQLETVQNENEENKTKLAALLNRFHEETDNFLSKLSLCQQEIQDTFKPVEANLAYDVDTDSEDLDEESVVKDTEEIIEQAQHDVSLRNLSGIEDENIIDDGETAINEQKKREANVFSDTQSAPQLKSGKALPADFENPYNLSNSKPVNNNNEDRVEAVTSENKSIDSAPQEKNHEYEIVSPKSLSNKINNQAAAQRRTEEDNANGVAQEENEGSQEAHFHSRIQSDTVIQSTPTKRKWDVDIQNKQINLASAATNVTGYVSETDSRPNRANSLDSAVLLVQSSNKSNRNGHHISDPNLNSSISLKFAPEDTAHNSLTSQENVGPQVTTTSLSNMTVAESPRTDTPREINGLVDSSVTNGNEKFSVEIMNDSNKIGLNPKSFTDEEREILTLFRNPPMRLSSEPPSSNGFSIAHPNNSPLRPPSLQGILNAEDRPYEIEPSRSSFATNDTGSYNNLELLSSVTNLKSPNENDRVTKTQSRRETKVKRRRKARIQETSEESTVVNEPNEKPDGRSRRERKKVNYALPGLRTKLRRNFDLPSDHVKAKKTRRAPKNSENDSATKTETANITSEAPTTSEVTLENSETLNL
B2: Borealin (Homo sapiens), Q53HL2 (parent)
chain: MAPRKGSSRVAKTNSLRRRKLASFLKDFDREVEIRIKQIESDRQNLLKEVDNLYNIEILRLPKALREMNWLDYFALGGNKQALEEAATADLDITEINKLTAEAIQTPLKSAKTRKVIQVDEMIVEEEEEEENERKNLQTARVKRCPPSKKRTQSIQGKGKGKRSSRANTVTPAVGRLEVSMVKPTPGLTPRFDSRVFKTPGLRTPAAGERIYNISGNGSPLADSKEIFLTVPVGGGESLRLLASDLQRHSIAQLDPEALGNIKKLSNRLAQICSSIRTHK
B3: Borealin (Homo sapiens), Q53HL2 (parent)
chain: B2 chain
partner: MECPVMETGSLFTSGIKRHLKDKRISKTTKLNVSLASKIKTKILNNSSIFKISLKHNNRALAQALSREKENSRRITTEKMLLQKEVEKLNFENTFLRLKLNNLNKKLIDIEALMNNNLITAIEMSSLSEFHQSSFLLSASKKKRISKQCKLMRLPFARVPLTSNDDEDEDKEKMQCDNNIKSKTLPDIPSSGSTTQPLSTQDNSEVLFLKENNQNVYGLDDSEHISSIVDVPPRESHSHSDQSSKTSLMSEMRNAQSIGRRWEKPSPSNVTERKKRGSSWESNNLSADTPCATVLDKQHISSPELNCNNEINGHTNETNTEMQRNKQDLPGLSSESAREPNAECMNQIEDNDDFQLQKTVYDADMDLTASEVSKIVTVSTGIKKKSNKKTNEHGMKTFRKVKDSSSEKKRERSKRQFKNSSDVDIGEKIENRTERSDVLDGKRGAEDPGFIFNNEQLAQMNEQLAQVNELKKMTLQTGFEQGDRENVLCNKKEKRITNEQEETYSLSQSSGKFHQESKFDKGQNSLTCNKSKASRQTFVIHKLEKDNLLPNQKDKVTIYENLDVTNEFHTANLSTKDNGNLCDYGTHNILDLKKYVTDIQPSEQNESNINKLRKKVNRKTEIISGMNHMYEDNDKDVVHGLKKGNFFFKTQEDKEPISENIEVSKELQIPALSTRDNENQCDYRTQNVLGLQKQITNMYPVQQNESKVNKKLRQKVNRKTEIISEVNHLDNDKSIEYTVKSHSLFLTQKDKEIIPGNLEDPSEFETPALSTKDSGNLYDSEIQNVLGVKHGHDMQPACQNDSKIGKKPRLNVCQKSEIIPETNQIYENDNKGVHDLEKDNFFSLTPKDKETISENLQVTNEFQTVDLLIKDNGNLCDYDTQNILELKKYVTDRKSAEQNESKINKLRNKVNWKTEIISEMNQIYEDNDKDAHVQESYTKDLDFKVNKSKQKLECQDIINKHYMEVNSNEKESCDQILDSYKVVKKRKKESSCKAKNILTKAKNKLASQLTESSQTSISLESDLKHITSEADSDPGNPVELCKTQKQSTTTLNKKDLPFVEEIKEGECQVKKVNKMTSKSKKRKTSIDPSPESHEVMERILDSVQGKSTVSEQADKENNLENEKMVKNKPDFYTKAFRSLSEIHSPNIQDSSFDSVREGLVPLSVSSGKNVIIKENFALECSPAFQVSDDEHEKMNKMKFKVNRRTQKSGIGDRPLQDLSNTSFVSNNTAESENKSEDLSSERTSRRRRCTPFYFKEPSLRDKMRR

Variants of: B1
Conditions: with sgo2_schpo sgo2, O13734
S202A;S229A;S244A;S278A;S294A was tested, and the “effect of a mutation on the interaction” value was “disrupting interaction”.

Variants of: B1
Conditions: with sgo2_schpo sgo2, O13734
Remark: another data set of the same source
For S202A;S229A;S244A;S278A;S294A;T393A;T831A;T908A, the “effect of a mutation on the interaction” value was “disrupting interaction”.

Variants of: B2
Conditions: with sgo1_human SGO1, Q5FBB7
Sequence of sgo1_human SGO1, Q5FBB7 (Q5FBB7 whole entry): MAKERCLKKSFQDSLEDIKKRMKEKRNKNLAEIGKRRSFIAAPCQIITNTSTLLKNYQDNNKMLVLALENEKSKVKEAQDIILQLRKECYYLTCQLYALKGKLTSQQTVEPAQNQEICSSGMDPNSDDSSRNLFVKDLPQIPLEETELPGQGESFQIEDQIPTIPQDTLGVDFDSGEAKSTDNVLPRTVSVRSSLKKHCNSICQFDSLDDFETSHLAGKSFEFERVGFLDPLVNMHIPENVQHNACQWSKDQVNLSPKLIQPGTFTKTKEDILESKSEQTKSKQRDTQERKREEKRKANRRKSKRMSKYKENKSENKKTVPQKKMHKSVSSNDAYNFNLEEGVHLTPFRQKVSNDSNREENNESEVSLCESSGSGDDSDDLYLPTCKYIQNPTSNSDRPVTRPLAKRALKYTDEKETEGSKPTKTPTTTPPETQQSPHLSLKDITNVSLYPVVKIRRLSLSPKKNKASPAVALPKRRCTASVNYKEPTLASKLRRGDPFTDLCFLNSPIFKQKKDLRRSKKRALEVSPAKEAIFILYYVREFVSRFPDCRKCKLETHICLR
MAPRKGSSRVAKTNSLRRRKLASFLKDFDREVEIRIKQIESDRQNLLKEVDNLYNIEILRLPKALREMNWLDYFALGGNKQALEEAATADLDITEINKLTAEAIQAPLKSAKTRKVIQVDEMIVEEEEEEENERKNLQTARVKRCPPSKKRTQSIQGKGKGKRSSRANTVAPAVGRLEVSMVKPAPGLAPRFDSRVFKAPGLRAPAAGERIYNISGNGAPLADSKEIFLTVPVGGGESLRLLASDLQRHSIAQLDPEALGNIKKLSNRLAQICSSIRTHK [T106A;T171A;T185A;T189A;T199A;T204A;S219A] was tested, and the “effect of a mutation on the interaction” value was “disrupting interaction strength”.

Variants of: B3
Conditions: with sgo2_human SGO2, Q562F6
For MAPRKGSSRVAKTNSLRRRKLASFLKDFDREVEIRIKQIESDRQNLLKEVDNLYNIEILRLPKALREMNWLDYFALGGNKQALEEAATADLDITEINKLTAEAIQAPLKSAKTRKVIQVDEMIVEEEEEEENERKNLQTARVKRCPPSKKRTQSIQGKGKGKRSSRANTVAPAVGRLEVSMVKPAPGLAPRFDSRVFKAPGLRAPAAGERIYNISGNGAPLADSKEIFLTVPVGGGESLRLLASDLQRHSIAQLDPEALGNIKKLSNRLAQICSSIRTHK [T106A;T171A;T185A;T189A;T199A;T204A;S219A], the “effect of a mutation on the interaction” value was “disrupting interaction strength”.
